# Experimental data reported in IntAct's records for PubMed 23770679.
# B1: Microtubule protein alp7 (Schizosaccharomyces pombe (strain ATCC 38366 / 972)), Q9URY2 (parent)
# chain: MSDIVSSSTDYSRRSPSSSSIGTNETDHTGFHEKRQGASSESLIPPAQRSSEESMPAPKLFPKLTSKPNPQLNLKDTLNKRVSDRLQALELNKSFDFSGTPRPMHPISHPLSQHKTPEFKHRKRNVESILTPKNPSLFSSSNAASQRGSLNTAPSNFAYSHSSSLQTSASSRPPVLSNGSFPRQTNTAPLNPPVHLKDNIRNSATPSTSQADIPTQYPINSTQKQQAKYEAEIEGYKAKLAGTYHEISVLQNTIVNVSGQLIAVNDQLQQLRSGKASTSPSTKDTNMRLVEGHNEETLALQRGKYTQEEVDKLIQERMEKVAEDLHAQYSAKHTQKINAFKANYARKYEATIQELQNQIGTAPNAPKISNSNWEEERRALKADNQTLQKQLEKAIQERQDMSDFLNNFKADMAKSDKLLMQQQSQQTGDLETLRLQLQALQEELRVEREERQQLIQMSEDLVIAMDQLNLEQKS
# partner: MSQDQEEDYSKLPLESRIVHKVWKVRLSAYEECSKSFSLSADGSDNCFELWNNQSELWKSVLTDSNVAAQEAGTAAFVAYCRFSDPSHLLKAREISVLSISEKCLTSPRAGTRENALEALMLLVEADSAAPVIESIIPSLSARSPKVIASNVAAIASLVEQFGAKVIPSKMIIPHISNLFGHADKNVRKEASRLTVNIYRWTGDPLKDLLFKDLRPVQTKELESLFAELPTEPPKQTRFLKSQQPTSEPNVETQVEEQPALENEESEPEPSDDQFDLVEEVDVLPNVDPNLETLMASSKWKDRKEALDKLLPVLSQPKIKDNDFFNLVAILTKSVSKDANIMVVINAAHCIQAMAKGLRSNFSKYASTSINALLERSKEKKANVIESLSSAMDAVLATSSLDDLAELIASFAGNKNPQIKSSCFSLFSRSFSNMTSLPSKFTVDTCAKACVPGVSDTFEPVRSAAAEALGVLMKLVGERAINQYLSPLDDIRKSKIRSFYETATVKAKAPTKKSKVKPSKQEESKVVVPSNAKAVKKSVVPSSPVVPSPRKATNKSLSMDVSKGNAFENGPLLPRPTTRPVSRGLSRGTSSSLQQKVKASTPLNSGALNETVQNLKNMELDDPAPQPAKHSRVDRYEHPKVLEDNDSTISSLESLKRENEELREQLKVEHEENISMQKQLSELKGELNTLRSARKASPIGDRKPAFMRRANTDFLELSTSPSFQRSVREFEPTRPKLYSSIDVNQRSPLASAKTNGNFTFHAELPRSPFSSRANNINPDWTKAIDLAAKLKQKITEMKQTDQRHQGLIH
# B2: Microtubule protein alp7 (Schizosaccharomyces pombe (strain ATCC 38366 / 972)), Q9URY2 (parent)
# chain: B1 chain
# partner: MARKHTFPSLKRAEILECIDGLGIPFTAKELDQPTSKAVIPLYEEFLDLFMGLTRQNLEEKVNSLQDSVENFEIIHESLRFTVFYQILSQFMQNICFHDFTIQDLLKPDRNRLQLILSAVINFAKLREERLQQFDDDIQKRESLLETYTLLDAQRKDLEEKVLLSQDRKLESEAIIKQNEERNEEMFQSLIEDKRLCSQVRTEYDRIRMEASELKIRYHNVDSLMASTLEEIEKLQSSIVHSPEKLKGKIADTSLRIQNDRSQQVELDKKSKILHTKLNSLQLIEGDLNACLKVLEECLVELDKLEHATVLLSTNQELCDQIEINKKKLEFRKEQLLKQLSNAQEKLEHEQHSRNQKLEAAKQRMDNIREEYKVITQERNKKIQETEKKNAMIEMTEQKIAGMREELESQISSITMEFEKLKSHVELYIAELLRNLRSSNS
# Variants of: B1
# Settings: with alp14_schpo alp14, O94534
row,Variant,effect of a mutation on the interaction
1,MSDIVSSSTDYSRRSPSSSSIGTNETDHTGFHEKRQGASSESLIPPAQRSSEESMPAPKLFPKLTSKPNPQLNLKDTLNKRVSDRLQALELNKSFDFSGTPRPMHPISHPLSQHKTPEFKHRKRNVESILTPKNPSLFSSSNAASQRGSLNTAPSNFAYSHSSSLQTSASSRPPVLSNGSFPRQTNTAPLNPPVHLKDNIRNSATPSTSQADIPTQYPINSTQKQQAKYEAEIEGYKAKLAGTYHEISVLQNTIVNVSGQLIAVNDQLQQLRSGKASTSPSTKDTNMRLVEGHNEETLALQRGKYTQEEVDKLIQERMEKVAEDLHAQYSAKHTQKINAFKANYARKYEATIQELQNQIGTAPNAPKISNSNWEEERRALKADNQTLQKQLEKAIQERQDMSDFLNNFKADMAKSDKLLMQQQSQQTGDLETLRLQLQALQEELRVEREERQQLIQMSEDAVIAMDQLNLEQKS [L461A],disrupting interaction strength

# Variants of: B2
# Settings: with nuf2_schpo nuf2, Q10173
row,Variant,effect of a mutation on the interaction
1,MSDIVSSSTDYSRRSPSSSSIGTNETDHTGFHEKRQGASSESLIPPAQRSSEESMPAPKLFPKLTSKPNPQLNLKDTLNKRVSDRLQALELNKSFDFSGTPRPMHPISHPLSQHKTPEFKHRKRNVESILTPKNPSLFSSSNAASQRGSLNTAPSNFAYSHSSSLQTSASSRPPVLSNGSFPRQTNTAPLNPPVHLKDNIRNSATPSTSQADIPTQYPINSTQKQQAKYEAEIEGYKAKLAGTYHEIAVLQNTIVNVSGQLIAVNDQLQQLRSGKASTSPSTKDTNMRLVEGHNEEALALQRGKYTQEEVDKLIQERMEKVAEDLHAQYSAKHTQKINAFKANYARKYEAAIQELQNQIGTAPNAPKISNSNWEEERRALKADNQTLQKQLEKAIQERQDMADFLNNFKADMAKSDKLLMQQQSQQTGDLETLRLQLQALQEELRVEREERQQLIQMSEDLVIAMDQLNLEQKS [S248A;T297A;T351A;S402A],disrupting interaction strength
